Results as given in patent US20190358305A1.

Target: Recombinant human active MMP-3 (ab96555, Abcam) (human) (UniProt P08254)
Assay: cell-based or functional assay

Sequence of UniProt P08254 (P08254 100-477 limits assumed): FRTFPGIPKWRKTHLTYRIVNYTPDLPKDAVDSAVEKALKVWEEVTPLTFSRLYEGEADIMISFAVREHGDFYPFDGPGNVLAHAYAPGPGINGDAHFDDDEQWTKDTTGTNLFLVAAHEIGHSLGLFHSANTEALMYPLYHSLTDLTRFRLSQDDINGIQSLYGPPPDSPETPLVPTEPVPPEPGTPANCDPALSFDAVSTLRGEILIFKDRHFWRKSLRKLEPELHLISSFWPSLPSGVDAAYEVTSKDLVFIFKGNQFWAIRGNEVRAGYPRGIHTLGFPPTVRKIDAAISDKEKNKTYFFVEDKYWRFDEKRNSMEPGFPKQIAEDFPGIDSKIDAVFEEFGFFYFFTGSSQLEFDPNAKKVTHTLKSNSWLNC

TEER reduction of HTM monolayers over 24 h: 10 ng/ml active MMP-3 against MMP-3 inactivated by incubation with TIMP-1: 4.29 Ohm·cm^2 | TEER reduction of SCEC monolayers over 24 h: 10 ng/ml active MMP-3 against MMP-3 inactivated by incubation with TIMP-1: 5.62 Ohm·cm^2 | increase in paracellular flux (Papp) of 70 kDa FITC-dextran through HTM monolayers: active MMP-3 against TIMP-1-inactivated MMP-3: 4e-05 ×10⁻⁶ cm/s | increase in paracellular flux (Papp) of 70 kDa FITC-dextran through SCEC monolayers: active MMP-3 against TIMP-1-inactivated MMP-3: 0.00014 ×10⁻⁶ cm/s
Substance: Recombinant human active TIMP-1 (ab82104, Abcam) (from UniProt P01033 24-207)
